One molecule from article doi:10.1101/2021.06.06.447241 (bioRxiv, 2021) can be followed below.

The test has as its target Ssa1 (Hsp70) (Saccharomyces cerevisiae, UniProt P10591 1-642). In words: cross-linking.

Ssa1 (Hsp70), sequence (P10591 whole entry): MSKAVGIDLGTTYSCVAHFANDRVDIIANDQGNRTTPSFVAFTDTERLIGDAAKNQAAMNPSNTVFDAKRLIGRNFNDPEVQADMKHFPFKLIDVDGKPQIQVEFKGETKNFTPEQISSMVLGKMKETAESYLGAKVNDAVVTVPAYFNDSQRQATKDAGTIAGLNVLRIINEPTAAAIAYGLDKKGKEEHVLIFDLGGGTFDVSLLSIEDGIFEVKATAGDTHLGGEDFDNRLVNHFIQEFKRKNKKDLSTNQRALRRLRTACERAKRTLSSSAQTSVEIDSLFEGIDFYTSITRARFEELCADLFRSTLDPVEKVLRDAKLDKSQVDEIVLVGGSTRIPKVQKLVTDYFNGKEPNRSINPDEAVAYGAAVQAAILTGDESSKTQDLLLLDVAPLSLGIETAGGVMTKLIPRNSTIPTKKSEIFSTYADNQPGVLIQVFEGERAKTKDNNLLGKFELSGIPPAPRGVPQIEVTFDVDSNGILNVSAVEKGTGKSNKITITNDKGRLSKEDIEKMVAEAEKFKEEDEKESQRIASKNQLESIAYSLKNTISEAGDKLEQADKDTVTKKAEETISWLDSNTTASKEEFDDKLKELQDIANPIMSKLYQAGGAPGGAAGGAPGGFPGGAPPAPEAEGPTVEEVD

B1: Ydj1 (Hsp40) (natural protein)
chain: MVKETKFYDILGVPVTATDVEIKKAYRKCALKYHPDKNPSEEAAEKFKEASAAYEILSDPEKRDIYDQFGEDGLSGAGGAGGFPGGGFGFGDDIFSQFFGAGGAQRPRGPQRGKDIKHEISASLEELYKGRTAKLALNKQILCKECEGRGGKKGAVKKCTSCNGQGIKFVTRQMGPMIQRFQTECDVCHGTGDIIDPKDRCKSCNGKKVENERKILEVHVEPGMKDGQRIVFKGEADQAPDVIPGDVVFIVSERPHKSFKRDGDDLVYEAEIDLLTAIAGGEFALEHVSGDWLKVGIVPGEVIAPGMRKVIEGKGMPIPKYGGYGNLIIKFTIKFPENHFTSEENLKKLEEILPPRIVPAIPKKATVDECVLADFDPAKYNRTRASRGGANYDSDEEEQGGEGVQCASQ
As for B1, the binding result is recorded as “binds”.
